# Results taken from patent US11254720B2, “Methods and systems for designing and/or characterizing soluble lipidated ligand agents” (Tufts Medical Center, priority 2013, dated 2022).
# Tests used:
# [1] = biological target: T1, CCK1R (Homo sapiens, UniProt P32238); test: SRE-luciferase agonist assay in transfected HEK293 cells; assay type: cell-based; conditions: tethered ligand cDNA cotransfected, 24 hours
# T1 construct: expressed in transfected cells; host or cells: HEK293
# T1 sequence (P32238 1-428): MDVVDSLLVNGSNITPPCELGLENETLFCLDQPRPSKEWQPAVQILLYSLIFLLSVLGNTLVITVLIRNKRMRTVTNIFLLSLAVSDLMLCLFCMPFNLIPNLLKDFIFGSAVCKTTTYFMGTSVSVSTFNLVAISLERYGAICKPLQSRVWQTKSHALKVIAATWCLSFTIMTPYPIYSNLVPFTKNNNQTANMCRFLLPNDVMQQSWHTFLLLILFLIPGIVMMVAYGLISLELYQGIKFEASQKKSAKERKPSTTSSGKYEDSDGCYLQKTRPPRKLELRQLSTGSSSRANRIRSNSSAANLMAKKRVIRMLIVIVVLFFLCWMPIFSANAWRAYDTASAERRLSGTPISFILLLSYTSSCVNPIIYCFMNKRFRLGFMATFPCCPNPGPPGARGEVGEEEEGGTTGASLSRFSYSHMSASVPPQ
# Procedure: (§1) A) Tethered CCK4-Gly activates the CCK2 receptor (left panel). Potency of the corresponding soluble lipidated ligand agent (1-CCK4-Gly) exceeds that of soluble CCK-4-Gly (right panel). […] HEK293 cells were transiently cotransfected with cDNAs encoding: the designated CCK receptor subtype, a 5X-SRE-Luc-pest reporter gene (pGL4.33), tethered ligand (as indicated) and a β-galactosidase gene to control for transfection efficiency. Tethered ligand activity was measured 24 hours following transfection. To assess activity of soluble and lipidated CCK-4-Gly, cells were stimulated for 4 hours with ligand. Both soluble and tethered ligand activity was quantified relative to a parallel preparation of CCK receptor expressing cells stimulated for 4 hours with soluble amidated CCK-4 (s-CCK4-NH2, 10 μM) for CCK-2R and soluble amidated CCK-8 (s-CCK8-NH2, 10 μM) for CCK-1R.
# (§2) Neurokinin receptors were purchased from the Missouri S+T cDNA Resource center. […] The nucleotide sequences of all receptor coding regions and tethered ligands were confirmed by automated DNA sequencing and analyzed using Vector NTI software (Invitrogen).
# [2] = biological target: T2, CCK2R (Homo sapiens, UniProt P32239); test: as above; assay type: cell-based; conditions: tethered ligand cDNA cotransfected, 24 hours
# T2 construct: expressed in transfected cells; host or cells: HEK293
# T2 sequence (P32239 1-447): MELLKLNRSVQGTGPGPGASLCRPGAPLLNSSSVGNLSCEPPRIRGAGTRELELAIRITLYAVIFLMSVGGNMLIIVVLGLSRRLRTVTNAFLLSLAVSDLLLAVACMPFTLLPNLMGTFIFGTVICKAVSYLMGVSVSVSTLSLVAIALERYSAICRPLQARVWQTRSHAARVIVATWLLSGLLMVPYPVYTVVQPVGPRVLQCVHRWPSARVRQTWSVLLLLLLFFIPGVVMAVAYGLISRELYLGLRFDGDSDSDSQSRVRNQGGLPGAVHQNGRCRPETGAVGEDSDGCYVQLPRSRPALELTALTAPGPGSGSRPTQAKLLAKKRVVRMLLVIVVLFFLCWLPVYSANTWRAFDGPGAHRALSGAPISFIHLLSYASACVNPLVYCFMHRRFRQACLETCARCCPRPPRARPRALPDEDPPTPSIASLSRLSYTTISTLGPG
# Procedure: as §1, §2
substance,measurement,setting,value
tCCK4-Gly: membrane-tethered glycine extended CCK4 (WMDFG) (chain (part 1 of 2) MSTSMIRDVELAEEALPKKTGGPQGSRRCLFSLFIVAGATTLFCLLHFGVI; left off: small tags and cut ends),Activity of membrane-tethered ligand at CCK1R,[1],no activity
same,Activity of membrane-tethered ligand at CCK2R,[2],activated the CCK2R in a concentration dependent manner
